Data on one molecule can be found in publication PMC6173745, “Aberrant expression of CITED2 promotes prostate cancer metastasis by activating the nucleolin-AKT pathway” (Nature Communications, 2018).

The target in test [1] is T1, Human recombinant protein NCL (human, UniProt P19338 1-710).
T1 construct: Nucleolin, human, recombinant protein bought from Origene; No catalogue number, host, tag or limits are printed; also called nucleolin; source: bought: Origene
Put plainly: co-IP; in vitro binding assay: recombinant proteins CITED2, PRMT5, NCL and P300 put together in a test tube, immunoprecipitated with the indicated antibodies, immunoblotted. The following applies: both partners purified. (A western blot detects proteins with antibodies after separation by electrophoresis.)

The target in test [2] is T2, Human recombinant protein PRMT5 (human, UniProt O14744 1-637).
T2 construct: PRMT5, human, recombinant protein bought from Origene; No catalogue number, host, tag or limits are printed; source: bought: Origene
The test is described as above. The following applies: both partners purified.

T1 sequence (P19338 whole entry): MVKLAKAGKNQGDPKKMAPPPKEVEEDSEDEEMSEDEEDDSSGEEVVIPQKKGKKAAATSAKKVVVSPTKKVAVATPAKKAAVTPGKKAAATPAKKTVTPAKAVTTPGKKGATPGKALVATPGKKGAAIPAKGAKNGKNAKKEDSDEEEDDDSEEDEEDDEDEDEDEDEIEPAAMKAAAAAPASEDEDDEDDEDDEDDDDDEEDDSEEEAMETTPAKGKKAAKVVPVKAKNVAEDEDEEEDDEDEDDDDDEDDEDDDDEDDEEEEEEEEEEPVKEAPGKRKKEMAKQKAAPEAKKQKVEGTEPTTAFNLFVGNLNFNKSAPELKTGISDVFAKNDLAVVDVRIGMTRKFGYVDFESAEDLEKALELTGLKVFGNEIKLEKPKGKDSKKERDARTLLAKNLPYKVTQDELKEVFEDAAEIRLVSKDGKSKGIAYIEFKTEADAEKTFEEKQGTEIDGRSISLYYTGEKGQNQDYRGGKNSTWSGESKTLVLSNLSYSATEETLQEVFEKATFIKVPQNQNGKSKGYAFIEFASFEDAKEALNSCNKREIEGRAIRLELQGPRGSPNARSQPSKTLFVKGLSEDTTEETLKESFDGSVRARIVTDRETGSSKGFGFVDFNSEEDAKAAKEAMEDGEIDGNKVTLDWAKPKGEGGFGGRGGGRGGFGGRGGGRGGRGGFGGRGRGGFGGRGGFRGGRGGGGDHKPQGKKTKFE
T2 sequence (O14744 whole entry): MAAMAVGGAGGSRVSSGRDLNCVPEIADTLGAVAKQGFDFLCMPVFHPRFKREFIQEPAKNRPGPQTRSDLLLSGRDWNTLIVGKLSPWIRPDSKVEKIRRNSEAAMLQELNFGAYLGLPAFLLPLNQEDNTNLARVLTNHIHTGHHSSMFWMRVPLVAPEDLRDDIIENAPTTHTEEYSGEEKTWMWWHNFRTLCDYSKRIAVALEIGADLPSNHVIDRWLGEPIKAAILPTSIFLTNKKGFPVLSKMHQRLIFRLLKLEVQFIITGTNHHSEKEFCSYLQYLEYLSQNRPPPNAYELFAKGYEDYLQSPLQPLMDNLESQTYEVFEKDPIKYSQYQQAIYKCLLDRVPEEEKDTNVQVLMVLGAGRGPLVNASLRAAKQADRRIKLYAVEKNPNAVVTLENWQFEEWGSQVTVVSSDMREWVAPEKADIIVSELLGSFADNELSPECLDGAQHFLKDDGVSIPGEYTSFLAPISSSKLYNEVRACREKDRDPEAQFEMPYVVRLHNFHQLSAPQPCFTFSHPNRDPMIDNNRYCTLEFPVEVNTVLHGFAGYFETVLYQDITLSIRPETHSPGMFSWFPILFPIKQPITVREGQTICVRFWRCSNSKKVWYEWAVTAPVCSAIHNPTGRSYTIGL

B1: Human recombinant protein CITED2 (natural protein, UniProt Q99967 1-270, looked up)
chain: MADHMMAMNHGRFPDGTNGLHHHPAHRMGMGQFPSPHHHQQQQPQHAFNALMGEHIHYGAGNMNATSGIRHAMGPGTVNGGHPPSALAPAARFNNSQFMGPPVASQGGSLPASMQLQKLNNQYFNHHPYPHNHYMPDLHPAAGHQMNGTNQHFRDCNPKHSGGSSTPGGSGGSSTPGGSGSSSGGGAGSSNSGGGSGSGNMPASVAHVPAAMLPPNVIDTDFIDEEVLMSLVIEMGLDRIKELPELWLGQNEFDFMTDFVCKQQPSRVSC
notes: CITED2, human, recombinant protein bought from Origene; No catalogue number, host, tag or limits are printed; source: bought: Origene
Consider B1, for which the binding result in test [1] and in test [2] was “binds” throughout.
